Source: US20240011005A1 (HUIDAGENE THERAPEUTICS, published 2024)
Residue numbers refer to the chain shown, from its start.

Assays:
Test in all cases: cell_activity
[1] = test system: T1, OsCas12f1 (ME-B.3) (Oscillibacter sp.); conditions: PAM TTTC, HEK293T
T1 sequence: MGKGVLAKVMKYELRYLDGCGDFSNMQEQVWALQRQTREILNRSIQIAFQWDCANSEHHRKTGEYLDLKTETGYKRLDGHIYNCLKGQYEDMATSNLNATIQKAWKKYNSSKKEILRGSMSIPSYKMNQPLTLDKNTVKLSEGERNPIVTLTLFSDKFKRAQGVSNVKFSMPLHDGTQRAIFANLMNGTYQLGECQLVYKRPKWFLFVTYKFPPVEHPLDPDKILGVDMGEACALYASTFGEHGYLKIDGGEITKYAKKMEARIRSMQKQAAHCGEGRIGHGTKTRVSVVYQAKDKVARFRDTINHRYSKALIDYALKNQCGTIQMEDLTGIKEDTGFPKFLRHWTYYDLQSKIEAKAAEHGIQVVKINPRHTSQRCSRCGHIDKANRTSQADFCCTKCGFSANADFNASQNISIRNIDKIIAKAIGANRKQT

[2] = test system: T2, OsCas12f1-T132R T132R (Oscillibacter sp.); conditions: PAM TTTC
T2 sequence: T1 sequence with T132R

[3] = test system: T3, OsCas12f1-S119R S119R (Oscillibacter sp.); conditions: PAM TTTC
T3 sequence: T1 sequence with S119R

[4] = test system: T4, OsCas12f1-A54R A54R (Oscillibacter sp.); conditions: PAM TTTC
T4 sequence: T1 sequence with A54R

[5] = test system: T5, OsCas12f1-S141R S141R (Oscillibacter sp.); conditions: PAM TTTC
T5 sequence: T1 sequence with S141R

[6] = test system: T6, OsCas12f1-D52R (Oscillibacter sp.); conditions: PAM TTTC; 1.31-fold in text
T6 sequence: T1 sequence with D52R

Sequence: AGGGACGACUUCCCGUCCCAAAAUCGAGACAGUAGCCGUAAAACUUUGAGUUUCAGAGUGGGCGACACACUCGAAAAGGUUAAGAUAUGCACAUAGUAAUCCGUGCAUGAGCCGCGAAAGCGGCUUGAAGGCCAUUACAGUAGGAGCAUACUUUUAUUUUUUU / TTTCCCATTACAGTAGGAGCATACGGG / CCCGTATGCTCCTACTGTAATGGGAAA
- activity [1]: 38.7 % GFP+
- activity [2]: 48.4 % GFP+
- activity [3]: 46.3 % GFP+
- activity [4]: 45.5 % GFP+
- activity [5]: 46.6 % GFP+
- activity [6]: 52.8 % GFP+
